Experimental data reported in patent US20220168396A1, “MULTI-RECEPTOR AGONIST AND MEDICAL USE THEREOF” (published 2022).
Square brackets hold non-standard residues; d marks the D form. Ends that are not written are not given here. Aib = CC(C)(N)C(=O)O

T1: human glucose-dependent insulinotropic peptide receptor (human, UniProt P48546)
T1 sequence: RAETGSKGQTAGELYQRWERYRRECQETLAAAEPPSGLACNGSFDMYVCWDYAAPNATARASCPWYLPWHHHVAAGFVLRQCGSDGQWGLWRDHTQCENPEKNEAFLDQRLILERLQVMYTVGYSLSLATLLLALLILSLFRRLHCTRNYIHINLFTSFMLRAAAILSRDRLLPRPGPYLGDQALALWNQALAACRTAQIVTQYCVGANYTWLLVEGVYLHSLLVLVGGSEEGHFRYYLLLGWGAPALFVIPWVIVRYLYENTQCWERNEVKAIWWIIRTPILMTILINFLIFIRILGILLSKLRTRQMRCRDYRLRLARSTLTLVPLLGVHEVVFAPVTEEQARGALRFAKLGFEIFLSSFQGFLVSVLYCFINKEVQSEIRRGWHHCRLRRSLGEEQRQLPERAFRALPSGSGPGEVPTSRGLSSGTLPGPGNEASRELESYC


What was measured:
[1] = molecular target: human glucagon-like peptide-1 receptor (human, UniProt P43220); assay: cell-based or functional assay
[2] = molecular target: T1, human glucose-dependent insulinotropic …; assay: cell-based or functional assay

Binder	Activity for human GLP-1R (EC50 nM), cAMP HTRF [1] [nM]	Activity for human GIPR (EC50 nM), cAMP HTRF [2] [nM]
Y[Aib]EGTFTSDVSIYLEKEAAKEFVNWLLAGGPSSGAPPPSK-NH2 (N-terminus assumed; SMILES CC[C@H](C)[C@H](NC(=O)[C@H](CO)NC(=O)[C@@H](NC(=O)[C@H](CC(=O)O)NC(=O)[C@H](CO)NC(=O)[C@@H](NC(=O)[C@H](Cc1ccccc1)NC(=O)[C@@H](NC(=O)CNC(=O)[C@H](CCC(=O)O)NC(=O)C(C)(C)NC(=O)[C@@H](N)Cc1ccc(O)cc1)[C@@H](C)O)[C@@H](C)O)C(C)C)C(=O)N[C@@H](Cc1ccc(O)cc1)C(=O)N[C@@H](CC(C)C)C(=O)N[C@@H](CCC(=O)O)C(=O)N[C@@H](CCCCN)C(=O)N[C@@H](CCC(=O)O)C(=O)N[C@@H](C)C(=O)N[C@@H](C)C(=O)N[C@@H](CCCCN)C(=O)N[C@@H](CCC(=O)O)C(=O)N[C@@H](Cc1ccccc1)C(=O)N[C@H](C(=O)N[C@@H](CC(N)=O)C(=O)N[C@@H](Cc1c[nH]c2ccccc12)C(=O)N[C@@H](CC(C)C)C(=O)N[C@@H](CC(C)C)C(=O)N[C@@H](C)C(=O)NCC(=O)NCC(=O)N1CCC[C@H]1C(=O)N[C@@H](CO)C(=O)N[C@@H](CO)C(=O)NCC(=O)N[C@@H](C)C(=O)N1CCC[C@H]1C(=O)N1CCC[C@H]1C(=O)N1CCC[C@H]1C(=O)N[C@@H](CO)C(=O)N[C@@H](CCCCN)C(N)=O)C(C)C) [Compound No. 7]	0.016	–
Y[Aib]EGTFTSDYSIYLDKIAAQEFVQWLLAGGPSSGAPPPSK-NH2 (N-terminus assumed; SMILES CC[C@H](C)[C@H](NC(=O)[C@H](CCCCN)NC(=O)[C@H](CC(=O)O)NC(=O)[C@H](CC(C)C)NC(=O)[C@H](Cc1ccc(O)cc1)NC(=O)[C@@H](NC(=O)[C@H](CO)NC(=O)[C@H](Cc1ccc(O)cc1)NC(=O)[C@H](CC(=O)O)NC(=O)[C@H](CO)NC(=O)[C@@H](NC(=O)[C@H](Cc1ccccc1)NC(=O)[C@@H](NC(=O)CNC(=O)[C@H](CCC(=O)O)NC(=O)C(C)(C)NC(=O)[C@@H](N)Cc1ccc(O)cc1)[C@@H](C)O)[C@@H](C)O)[C@@H](C)CC)C(=O)N[C@@H](C)C(=O)N[C@@H](C)C(=O)N[C@@H](CCC(N)=O)C(=O)N[C@@H](CCC(=O)O)C(=O)N[C@@H](Cc1ccccc1)C(=O)N[C@H](C(=O)N[C@@H](CCC(N)=O)C(=O)N[C@@H](Cc1c[nH]c2ccccc12)C(=O)N[C@@H](CC(C)C)C(=O)N[C@@H](CC(C)C)C(=O)N[C@@H](C)C(=O)NCC(=O)NCC(=O)N1CCC[C@H]1C(=O)N[C@@H](CO)C(=O)N[C@@H](CO)C(=O)NCC(=O)N[C@@H](C)C(=O)N1CCC[C@H]1C(=O)N1CCC[C@H]1C(=O)N1CCC[C@H]1C(=O)N[C@@H](CO)C(=O)N[C@@H](CCCCN)C(N)=O)C(C)C) [Compound No. 21]	0.043	–
Y[Aib]EGTFTSDYSIYLEKIAAQEFVQWLIAGGPSSGAPPPS-NH2 (N-terminus assumed; SMILES CC[C@H](C)[C@H](NC(=O)[C@H](CCCCN)NC(=O)[C@H](CCC(=O)O)NC(=O)[C@H](CC(C)C)NC(=O)[C@H](Cc1ccc(O)cc1)NC(=O)[C@@H](NC(=O)[C@H](CO)NC(=O)[C@H](Cc1ccc(O)cc1)NC(=O)[C@H](CC(=O)O)NC(=O)[C@H](CO)NC(=O)[C@@H](NC(=O)[C@H](Cc1ccccc1)NC(=O)[C@@H](NC(=O)CNC(=O)[C@H](CCC(=O)O)NC(=O)C(C)(C)NC(=O)[C@@H](N)Cc1ccc(O)cc1)[C@@H](C)O)[C@@H](C)O)[C@@H](C)CC)C(=O)N[C@@H](C)C(=O)N[C@@H](C)C(=O)N[C@@H](CCC(N)=O)C(=O)N[C@@H](CCC(=O)O)C(=O)N[C@@H](Cc1ccccc1)C(=O)N[C@H](C(=O)N[C@@H](CCC(N)=O)C(=O)N[C@@H](Cc1c[nH]c2ccccc12)C(=O)N[C@@H](CC(C)C)C(=O)N[C@H](C(=O)N[C@@H](C)C(=O)NCC(=O)NCC(=O)N1CCC[C@H]1C(=O)N[C@@H](CO)C(=O)N[C@@H](CO)C(=O)NCC(=O)N[C@@H](C)C(=O)N1CCC[C@H]1C(=O)N1CCC[C@H]1C(=O)N1CCC[C@H]1C(=O)N[C@@H](CO)C(N)=O)[C@@H](C)CC)C(C)C) [Compound No. 79]	0.012	–
Y[Aib]EGTFTSDYSIYLEKEAAKEFIAWLLAGGPSSGAPPPS-NH2 (N-terminus assumed; SMILES CC[C@H](C)[C@H](NC(=O)[C@H](Cc1ccccc1)NC(=O)[C@H](CCC(=O)O)NC(=O)[C@H](CCCCN)NC(=O)[C@H](C)NC(=O)[C@H](C)NC(=O)[C@H](CCC(=O)O)NC(=O)[C@H](CCCCN)NC(=O)[C@H](CCC(=O)O)NC(=O)[C@H](CC(C)C)NC(=O)[C@H](Cc1ccc(O)cc1)NC(=O)[C@@H](NC(=O)[C@H](CO)NC(=O)[C@H](Cc1ccc(O)cc1)NC(=O)[C@H](CC(=O)O)NC(=O)[C@H](CO)NC(=O)[C@@H](NC(=O)[C@H](Cc1ccccc1)NC(=O)[C@@H](NC(=O)CNC(=O)[C@H](CCC(=O)O)NC(=O)C(C)(C)NC(=O)[C@@H](N)Cc1ccc(O)cc1)[C@@H](C)O)[C@@H](C)O)[C@@H](C)CC)C(=O)N[C@@H](C)C(=O)N[C@@H](Cc1c[nH]c2ccccc12)C(=O)N[C@@H](CC(C)C)C(=O)N[C@@H](CC(C)C)C(=O)N[C@@H](C)C(=O)NCC(=O)NCC(=O)N1CCC[C@H]1C(=O)N[C@@H](CO)C(=O)N[C@@H](CO)C(=O)NCC(=O)N[C@@H](C)C(=O)N1CCC[C@H]1C(=O)N1CCC[C@H]1C(=O)N1CCC[C@H]1C(=O)N[C@@H](CO)C(N)=O) [Compound No. 67]	–	0.017
Y[Aib]EGTFTSDYSIYLEEEAAQEFVNWLLAGGPSSGAPPPS-NH2 (N-terminus assumed; SMILES CC[C@H](C)[C@H](NC(=O)[C@H](CO)NC(=O)[C@H](Cc1ccc(O)cc1)NC(=O)[C@H](CC(=O)O)NC(=O)[C@H](CO)NC(=O)[C@@H](NC(=O)[C@H](Cc1ccccc1)NC(=O)[C@@H](NC(=O)CNC(=O)[C@H](CCC(=O)O)NC(=O)C(C)(C)NC(=O)[C@@H](N)Cc1ccc(O)cc1)[C@@H](C)O)[C@@H](C)O)C(=O)N[C@@H](Cc1ccc(O)cc1)C(=O)N[C@@H](CC(C)C)C(=O)N[C@@H](CCC(=O)O)C(=O)N[C@@H](CCC(=O)O)C(=O)N[C@@H](CCC(=O)O)C(=O)N[C@@H](C)C(=O)N[C@@H](C)C(=O)N[C@@H](CCC(N)=O)C(=O)N[C@@H](CCC(=O)O)C(=O)N[C@@H](Cc1ccccc1)C(=O)N[C@H](C(=O)N[C@@H](CC(N)=O)C(=O)N[C@@H](Cc1c[nH]c2ccccc12)C(=O)N[C@@H](CC(C)C)C(=O)N[C@@H](CC(C)C)C(=O)N[C@@H](C)C(=O)NCC(=O)NCC(=O)N1CCC[C@H]1C(=O)N[C@@H](CO)C(=O)N[C@@H](CO)C(=O)NCC(=O)N[C@@H](C)C(=O)N1CCC[C@H]1C(=O)N1CCC[C@H]1C(=O)N1CCC[C@H]1C(=O)N[C@@H](CO)C(N)=O)C(C)C) [Compound No. 73]	0.069	–
Y[Aib]EGTFTSDVSIYLEKIAAQEFVNWLLAGGPSSGAPPPS-NH2 (N-terminus assumed; SMILES CC[C@H](C)[C@H](NC(=O)[C@H](CCCCN)NC(=O)[C@H](CCC(=O)O)NC(=O)[C@H](CC(C)C)NC(=O)[C@H](Cc1ccc(O)cc1)NC(=O)[C@@H](NC(=O)[C@H](CO)NC(=O)[C@@H](NC(=O)[C@H](CC(=O)O)NC(=O)[C@H](CO)NC(=O)[C@@H](NC(=O)[C@H](Cc1ccccc1)NC(=O)[C@@H](NC(=O)CNC(=O)[C@H](CCC(=O)O)NC(=O)C(C)(C)NC(=O)[C@@H](N)Cc1ccc(O)cc1)[C@@H](C)O)[C@@H](C)O)C(C)C)[C@@H](C)CC)C(=O)N[C@@H](C)C(=O)N[C@@H](C)C(=O)N[C@@H](CCC(N)=O)C(=O)N[C@@H](CCC(=O)O)C(=O)N[C@@H](Cc1ccccc1)C(=O)N[C@H](C(=O)N[C@@H](CC(N)=O)C(=O)N[C@@H](Cc1c[nH]c2ccccc12)C(=O)N[C@@H](CC(C)C)C(=O)N[C@@H](CC(C)C)C(=O)N[C@@H](C)C(=O)NCC(=O)NCC(=O)N1CCC[C@H]1C(=O)N[C@@H](CO)C(=O)N[C@@H](CO)C(=O)NCC(=O)N[C@@H](C)C(=O)N1CCC[C@H]1C(=O)N1CCC[C@H]1C(=O)N1CCC[C@H]1C(=O)N[C@@H](CO)C(N)=O)C(C)C) [Compound No. 68]	–	0.047
Y[Aib]EGTFTSDVSSYLEEEHQKEFIAWLVRGGPSSGAPPPSK-NH2 (N-terminus assumed; SMILES CC[C@H](C)[C@H](NC(=O)[C@H](Cc1ccccc1)NC(=O)[C@H](CCC(=O)O)NC(=O)[C@H](CCCCN)NC(=O)[C@H](CCC(N)=O)NC(=O)[C@H](Cc1c[nH]cn1)NC(=O)[C@H](CCC(=O)O)NC(=O)[C@H](CCC(=O)O)NC(=O)[C@H](CCC(=O)O)NC(=O)[C@H](CC(C)C)NC(=O)[C@H](Cc1ccc(O)cc1)NC(=O)[C@H](CO)NC(=O)[C@H](CO)NC(=O)[C@@H](NC(=O)[C@H](CC(=O)O)NC(=O)[C@H](CO)NC(=O)[C@@H](NC(=O)[C@H](Cc1ccccc1)NC(=O)[C@@H](NC(=O)CNC(=O)[C@H](CCC(=O)O)NC(=O)C(C)(C)NC(=O)[C@@H](N)Cc1ccc(O)cc1)[C@@H](C)O)[C@@H](C)O)C(C)C)C(=O)N[C@@H](C)C(=O)N[C@@H](Cc1c[nH]c2ccccc12)C(=O)N[C@@H](CC(C)C)C(=O)N[C@H](C(=O)N[C@@H](CCCNC(=N)N)C(=O)NCC(=O)NCC(=O)N1CCC[C@H]1C(=O)N[C@@H](CO)C(=O)N[C@@H](CO)C(=O)NCC(=O)N[C@@H](C)C(=O)N1CCC[C@H]1C(=O)N1CCC[C@H]1C(=O)N1CCC[C@H]1C(=O)N[C@@H](CO)C(=O)N[C@@H](CCCCN)C(N)=O)C(C)C) [Compound No. 3]	0.578	0.91
